The data set concerns the molecule itself. As to the kind of experiment: reduced and non-reduced SDS-PAGE and Western blot of 293HEK cell lysate and culture media (homodimer formation). The text has this: The formation of disulfide bonded dimers of modified α-GAL was examined in cell lysate and culture media (FIG. 2A). Clones of each α-GAL construct were transiently expressed in 293HEK cell. Cell lysates and culture media were run on 4-12% gradient SDS-PAGE and transferred to nitrocellulose. α-GAL was detected by Western Blotting with rabbit monoclonal anti- α-GAL 1:2000 (abcam ab168341).
Reduced and non-reduced samples were subjected to electrophoresis and Western blotting.
On the technique in general: A western blot detects proteins with antibodies after separation by electrophoresis.

Where a chain is given by its changes, count along the chain named. Numbers in names are those of the source.

The values below come from patent US20200147241A1 (AMICUS THERAPEUTICS, published 2020).

B1: Human α-GAL M51C-G360C (enzyme)
chain: LDNGLARTPTMGWLHWERFCCNLDCQEEPDSCISEKLFMEMAELMVSEGWKDAGYEYLCIDDCWMAPQRDSEGRLQADPQRFPHGIRQLANYVHSKGLKLGIYADVGNKTCAGFPGSFGYYDIDAQTFADWGVDLLKFDGCYCDSLENLADGYKHMSLALNRTGRSIVYSCEWPLYMWPFQKPNYTEIRQYCNHWRNFADIDDSWKSIKSILDWTSFNQERIVDVAGPGGWNDPDMLVIGNFGLSWNQQVTQMALWAIMAAPLFMSNDLRHISPQAKALLQDKDVIAINQDPLGKQGYQLRQGDNFEVWERPLSGLAWAVAMINRQEICGPRSYTIAVASLGKGVACNPACFITQLLPVKRKLGFYEWTSRLRSHINPTGTVLLQLENTMQMSLKDLL
notes: It is the full precursor entry; Transiently expressed in 293HEK cells, tested in cell lysate and culture media; also called M51C-G360C α-GAL; modified α-galactosidase A
As to B1, the binding result was “binds”.

B2: Human α-GAL D233C-I359C (enzyme)
chain: B1 chain with C20M, D202C, I328C, C329G
notes: It is the full precursor entry; Transiently expressed in 293HEK cells, tested in cell lysate and culture media; also called D233C-I359C α-GAL; modified α-galactosidase A
As for B2, the binding result is listed as “binds”.
